Results: US20150079112A1 (SAMSUNG ELECTRONICS, published 2015)

What was measured:
Test in all cases: ELISA, coated antibody 1000 nM, 250 ng FLAG-tagged mutant Ang2, anti-FLAG-HRP, OD450
[1] = target: T1, mutant Ang2 protein, Q418 substituted with alanine, FLAG-tagged at its N-terminal (human, UniProt O15123 19-496, limits assumed)
T1 sequence: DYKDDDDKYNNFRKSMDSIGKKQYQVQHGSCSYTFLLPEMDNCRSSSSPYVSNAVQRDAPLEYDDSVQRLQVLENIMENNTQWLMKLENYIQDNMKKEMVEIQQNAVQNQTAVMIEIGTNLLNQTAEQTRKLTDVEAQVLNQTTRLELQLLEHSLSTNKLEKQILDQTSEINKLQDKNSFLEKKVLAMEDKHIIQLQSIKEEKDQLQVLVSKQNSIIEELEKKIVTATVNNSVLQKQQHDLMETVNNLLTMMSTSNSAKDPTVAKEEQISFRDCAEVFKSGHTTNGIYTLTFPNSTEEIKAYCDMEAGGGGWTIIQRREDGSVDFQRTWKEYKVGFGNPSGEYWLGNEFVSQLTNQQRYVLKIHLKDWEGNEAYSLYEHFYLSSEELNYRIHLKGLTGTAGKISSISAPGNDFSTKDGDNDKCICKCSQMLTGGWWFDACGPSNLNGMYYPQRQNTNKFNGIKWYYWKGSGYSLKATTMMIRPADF
Procedure: (§1) Each well of a 96-well MaxiSorp™ flat-bottom plate (Nunc) was coated with 50 ul (microliter) of 1000 nM antibody. Then, the plate was washed five times with 0.05% (v/v) Tween-20-containing PBS (PBST) and blocked with 1% (v/v) BSA-containing PBS at a room temperature for 2 hours. 250 ng of each mutant Ang2 protein obtained by substituting S417, Q418, P419, N421, I434, D448, A449, P452, Y460, N467, K468, or F469 residue of Ang2 protein tagged with a FLAG sequence ([…], Sigma) at its N-terminal with alanine was added to each well of the plate, which was then allowed to react at a room temperature for 2 hours.
(§2) The plate was washed five times with 0.05% (v/v) Tween-20 containing PBS, reacted with an anti-FLAG antibody (SIGMA) conjugated with HRP which was diluted in 1% (v/v) BSA-containing PBS at a ratio of 1:5,000 (v/v) at a room temperature for 1 hour, and washed five times with 0.1% (v/v) Tween-20-containing PBS.
(§3) Finally, 50 ul of TMB substrates (Cell signaling) was added to each well of the plate to induce color development at a room temperature for 3 min. and the reaction was ceased by the addition of 50 ul of Stop solution (Cell signaling) and then, OD450 values were measured on a plate reader (Molecular Devices). By comparing binding affinities with mutated Ang2 to those of unmutated Ang2, each epitope of Ang2 antibodies was identified. The thus obtained measurement results of the binding affinities (%) with mutant Ang2 against the binding affinity with the native Ang2 are shown in the following Table 8.

[2] = target: T2, mutant Ang2 protein, P419 substituted with alanine, FLAG-tagged at its N-terminal (human, UniProt O15123 19-496, limits assumed)
T2 sequence: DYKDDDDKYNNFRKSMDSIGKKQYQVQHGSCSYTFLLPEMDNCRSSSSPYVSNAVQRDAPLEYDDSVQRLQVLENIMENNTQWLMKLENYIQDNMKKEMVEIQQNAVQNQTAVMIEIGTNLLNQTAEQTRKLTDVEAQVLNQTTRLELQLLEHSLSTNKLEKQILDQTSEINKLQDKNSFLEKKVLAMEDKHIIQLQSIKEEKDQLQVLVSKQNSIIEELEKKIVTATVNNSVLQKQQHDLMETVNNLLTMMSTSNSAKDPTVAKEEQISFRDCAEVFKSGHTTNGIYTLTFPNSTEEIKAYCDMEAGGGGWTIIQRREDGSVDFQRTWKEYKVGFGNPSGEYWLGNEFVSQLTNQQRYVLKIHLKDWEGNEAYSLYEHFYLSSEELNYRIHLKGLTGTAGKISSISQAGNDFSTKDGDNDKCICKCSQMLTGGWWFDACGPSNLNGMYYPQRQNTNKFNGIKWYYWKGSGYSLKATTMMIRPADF
Procedure: as §1, §2, §3

[3] = target: T3, mutant Ang2 protein, P452 substituted with alanine, FLAG-tagged at its N-terminal (human, UniProt O15123 19-496, limits assumed)
T3 sequence: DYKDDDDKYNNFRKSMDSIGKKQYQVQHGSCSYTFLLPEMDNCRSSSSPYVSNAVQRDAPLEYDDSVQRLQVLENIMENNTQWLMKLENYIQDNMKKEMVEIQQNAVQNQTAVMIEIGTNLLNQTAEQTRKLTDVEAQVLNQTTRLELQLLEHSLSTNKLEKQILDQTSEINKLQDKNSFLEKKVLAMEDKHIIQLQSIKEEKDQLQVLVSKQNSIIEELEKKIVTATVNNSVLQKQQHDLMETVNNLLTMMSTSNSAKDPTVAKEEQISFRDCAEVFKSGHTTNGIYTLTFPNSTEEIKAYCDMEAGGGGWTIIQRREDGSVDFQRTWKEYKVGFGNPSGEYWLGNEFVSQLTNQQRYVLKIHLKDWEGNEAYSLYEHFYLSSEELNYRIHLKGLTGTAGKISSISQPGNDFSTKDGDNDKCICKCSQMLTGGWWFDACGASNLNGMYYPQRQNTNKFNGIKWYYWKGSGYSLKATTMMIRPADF
Procedure: as §1, §2, §3

[4] = target: T4, mutant Ang2 protein, S417 substituted with alanine, FLAG-tagged at its N-terminal (human, UniProt O15123 19-496, limits assumed)
T4 sequence: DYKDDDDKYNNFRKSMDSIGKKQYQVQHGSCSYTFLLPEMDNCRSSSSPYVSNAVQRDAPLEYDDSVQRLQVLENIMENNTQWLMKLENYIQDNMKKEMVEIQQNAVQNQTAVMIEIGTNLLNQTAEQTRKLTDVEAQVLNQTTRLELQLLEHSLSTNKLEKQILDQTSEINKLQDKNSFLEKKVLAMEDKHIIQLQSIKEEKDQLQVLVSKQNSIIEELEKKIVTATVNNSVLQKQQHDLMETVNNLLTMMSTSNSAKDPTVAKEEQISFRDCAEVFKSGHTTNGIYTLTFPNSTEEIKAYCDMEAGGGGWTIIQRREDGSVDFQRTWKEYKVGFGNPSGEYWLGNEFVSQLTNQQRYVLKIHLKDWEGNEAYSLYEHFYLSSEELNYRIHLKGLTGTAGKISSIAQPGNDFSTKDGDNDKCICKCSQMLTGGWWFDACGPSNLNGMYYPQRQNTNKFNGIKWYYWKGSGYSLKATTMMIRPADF
Procedure: as §1, §2, §3

B1: SAIT-ANG2-AB-m10D6 (antibody, V domains shown)
VH: DVQLQESGPGLVKPSQSLSLTCTVTGYSITSDYAWNWIRQFPGNKLEWMGYINYSGNTDYNPSLKSRSSITRDTSKNQFFLQLNSVTTGDTATYYCARGNFEGAMDYWGQGTSVTVSS
VL: SIVMTQTPKFLLVSAGDRVTITCKASQSVSNDVAWYQQKPGQSPKLLIYYASNRYPGVPDRFTGSGYGTDFTFTISTVQAEDLAVYFCQQDYSSPWTFGGGTKLEIK
notes: also called antibody 10D6; anti-Ang2 antibody (10D6)
- binding affinity (%) with mutant Ang2 against the binding affinity with the native Ang2 [1]: 38.9%
- binding affinity (%) with mutant Ang2 against the binding affinity with the native Ang2 [2]: 41.1%
- binding affinity (%) with mutant Ang2 against the binding affinity with the native Ang2 [3]: 102%
- binding affinity (%) with mutant Ang2 against the binding affinity with the native Ang2 [4]: 101%
